Publication PMC6045629

Biological target: sc E183-HLA-A2 A245V (HBV | human)

With “CD8 coreceptor (from UniProt P01732 22-235)” the reduction of IFN-γ production of human E183 CTL after 3 h with T-REx CHO cells expressing the mutant antigen was 25%.
